Legend:
[1] = target: T1, anti-CD28 Fab (SEQ ID NOs: 202, 203); experiment: phage binding ELISA; biotinylated Fab on neutravidin plate;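 also: clonal phage supernatants added to Fab wells pretreated with CD28 antigen or with blocking buffer only, bound phage read out via HRP-linked anti-M13 antibody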
T1 construct: biotinylated and captured on neutravidin coated plates in the phage ELISA
Experimental: (§1) Clonal phage were harvested as crude supernatants and screened via standard ELISAs. […] Prior to the addition of clonal phage, wells were incubated with blocking buffer and CD28 antigen or blocking buffer alone. Without washing or aspirating, clonal phage supernatants were then added to the wells and incubated for a short time. Wells were then washed followed by detection of bound phage using a horse radish conjugated anti-M13 antibody.

[2] = target: T1, anti-CD28 Fab (SEQ ID NOs: 202, 203); experiment: phage binding ELISA; Fab wells pre-incubated with CD28 antigen (competitor);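 also: clonal phage supernatants added to wells preincubated with CD28 antigen in blocking buffer versus blocking buffer alone, washed, bound phage read by HRP-conjugated anti-M13 antibody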
Experimental: as §1

[3] = target: Anti-CD28 Fab (SEQ ID NOs: 202, 203); experiment: phage binding ELISA on captured Fab;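 also: clonal phage supernatants added briefly to wells pre-incubated with CD28 antigen or with blocking buffer only, then washed, bound phage read by ELISA using HRP-coupled anti-M13 antibody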
Experimental: as §1

[4] = target: Anti-CD28 Fab (SEQ ID NOs: 202, 203); experiment: phage binding ELISA on captured Fab; competitor CD28 antigen;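 as to Anti-CD28 Fab signal in the presence of CD28: wells pretreated with CD28 antigen in blocking buffer or buffer only, then clonal phage supernatants added briefly without washing, bound phage detected via horseradish-conjugated anti-M13 antibody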
Experimental: as §1

Sequence of Anti-CD28 Fab (SEQ ID NOs: 202, 203) (VH, as listed by the source, chain 1 of 2): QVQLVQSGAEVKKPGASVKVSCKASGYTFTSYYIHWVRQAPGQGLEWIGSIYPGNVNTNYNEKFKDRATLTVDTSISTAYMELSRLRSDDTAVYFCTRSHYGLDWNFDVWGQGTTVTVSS
Sequence of Anti-CD28 Fab (SEQ ID NOs: 202, 203) (VL, as listed by the source, chain 2 of 2): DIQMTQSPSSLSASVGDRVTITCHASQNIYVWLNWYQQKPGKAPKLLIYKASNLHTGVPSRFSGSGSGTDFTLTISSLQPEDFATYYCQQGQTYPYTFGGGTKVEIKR
T1 sequence (VH, as listed by the source, chain 1 of 2): as the sequence (VH, as listed by the source, chain 1 of 2) above
T1 sequence (VL, as listed by the source, chain 2 of 2): as the sequence (VL, as listed by the source, chain 2 of 2) above

B1: Phage-369 (peptide)
peptide: YCVGHAPEFMAKCL
- Anti-CD28 Fab (SEQ ID NOs: 202, 203) signal [1]: 1.8
- Anti-CD28 Fab signal in the presence of CD28 [2]: 0.1

B2: Phage-334 (peptide)
peptide: YCDGHTGVYFYKCL
- Anti-CD28 Fab (SEQ ID NOs: 202, 203) signal [1]: 1.87
- Anti-CD28 Fab signal in the presence of CD28 [2]: 0.08

B3: Phage-350 (peptide)
peptide: YCDGHSPAYMAKCL
- Anti-CD28 Fab (SEQ ID NOs: 202, 203) signal [1]: 1.83
- Anti-CD28 Fab signal in the presence of CD28 [2]: 0.1

B4: Phage-372 (peptide)
peptide: YCDGHLGVYMAKCL
- Anti-CD28 Fab (SEQ ID NOs: 202, 203) signal [1]: 1.79
- Anti-CD28 Fab signal in the presence of CD28 [2]: 0.07

B5: Phage-347 (peptide)
peptide: YCAGHAPEYMFKCM
- Anti-CD28 Fab (SEQ ID NOs: 202, 203) signal [1]: 1.83
- Anti-CD28 Fab signal in the presence of CD28 [2]: 0.06

B6: Phage-386 (peptide)
peptide: YCDGHLDEYMEKCL
- Anti-CD28 Fab (SEQ ID NOs: 202, 203) signal [1]: 1.76
- Anti-CD28 Fab signal in the presence of CD28 [2]: 0.08

B7: Phage-342 (peptide)
peptide: YCDGHSAAYIMKCL
- Anti-CD28 Fab (SEQ ID NOs: 202, 203) signal [1]: 1.84
- Anti-CD28 Fab signal in the presence of CD28 [2]: 0.09

B8: Phage-27 (peptide)
peptide: YCEGHEGIYFWKCL
- Anti-CD28 Fab signal [3]: 2.07
- Anti-CD28 Fab signal in the presence of CD28 [4]: 0.06

B9: Phage-340 (peptide)
peptide: YCAGHSSEYMWKCL
- Anti-CD28 Fab (SEQ ID NOs: 202, 203) signal [1]: 1.85
- Anti-CD28 Fab signal in the presence of CD28 [2]: 0.07

B10: Phage-445 (peptide)
peptide: YCAGHLQEYMQKCL
- Anti-CD28 Fab (SEQ ID NOs: 202, 203) signal [1]: 1.69
- Anti-CD28 Fab signal in the presence of CD28 [2]: 0.07

B11: Phage-346 (peptide)
peptide: YCEGHLQIYMSKCL
- Anti-CD28 Fab (SEQ ID NOs: 202, 203) signal [1]: 1.84
- Anti-CD28 Fab signal in the presence of CD28 [2]: 0.14

B12: Phage-388 (peptide)
peptide: YCEGHLPIYMSKCL
- Anti-CD28 Fab (SEQ ID NOs: 202, 203) signal [1]: 1.76
- Anti-CD28 Fab signal in the presence of CD28 [2]: 0.09

B13: Phage-370 (peptide)
peptide: YCAGHAEQYMAKCL
- Anti-CD28 Fab (SEQ ID NOs: 202, 203) signal [1]: 1.8
- Anti-CD28 Fab signal in the presence of CD28 [2]: 0.08

B14: Phage-331 (peptide)
peptide: YCEGHSPLYMSKCL
- Anti-CD28 Fab (SEQ ID NOs: 202, 203) signal [1]: 1.87
- Anti-CD28 Fab signal in the presence of CD28 [2]: 0.09

B15: Phage-25 (peptide)
peptide: YCEGHSPEYILKCL
- Anti-CD28 Fab signal [3]: 1.75
- Anti-CD28 Fab signal in the presence of CD28 [4]: 0.06

B16: Phage-93 (peptide)
peptide: YCDGHSPEYILKCL
- Anti-CD28 Fab signal [3]: 2.31
- Anti-CD28 Fab signal in the presence of CD28 [4]: 0.09

B17: Phage-26 (peptide)
peptide: YCEGHRPEYILKCL
- Anti-CD28 Fab signal [3]: 1.27
- Anti-CD28 Fab signal in the presence of CD28 [4]: 0.06

B18: Phage-367 (peptide)
peptide: YCAGHLPMYMAKCL
- Anti-CD28 Fab (SEQ ID NOs: 202, 203) signal [1]: 1.8
- Anti-CD28 Fab signal in the presence of CD28 [2]: 0.08

B19: Phage-335 (peptide)
peptide: YCEGHTSEYMNKCL
- Anti-CD28 Fab (SEQ ID NOs: 202, 203) signal [1]: 1.87
- Anti-CD28 Fab signal in the presence of CD28 [2]: 0.06

B20: Phage-345 (peptide)
peptide: YCAGHLPEYLSKCL
- Anti-CD28 Fab (SEQ ID NOs: 202, 203) signal [1]: 1.84
- Anti-CD28 Fab signal in the presence of CD28 [2]: 0.07

B21: Phage-339 (peptide)
peptide: YCEGHAAEYMSKCL
- Anti-CD28 Fab (SEQ ID NOs: 202, 203) signal [1]: 1.86
- Anti-CD28 Fab signal in the presence of CD28 [2]: 0.07

B22: Phage-384 (peptide)
peptide: YCEGHSPQYVQKCL
- Anti-CD28 Fab (SEQ ID NOs: 202, 203) signal [1]: 1.77
- Anti-CD28 Fab signal in the presence of CD28 [2]: 0.06

B23: Phage-383 (peptide)
peptide: YCDGHSSEYIAKCL
- Anti-CD28 Fab (SEQ ID NOs: 202, 203) signal [1]: 1.77
- Anti-CD28 Fab signal in the presence of CD28 [2]: 0.07

B24: Phage-374 (peptide)
peptide: YCDGHSPEYIAKCL
- Anti-CD28 Fab (SEQ ID NOs: 202, 203) signal [1]: 1.79
- Anti-CD28 Fab signal in the presence of CD28 [2]: 0.23

B25: Phage-444 (peptide)
peptide: YCDGHLPVYLEKCL
- Anti-CD28 Fab (SEQ ID NOs: 202, 203) signal [1]: 1.69
- Anti-CD28 Fab signal in the presence of CD28 [2]: 0.06

B26: Phage-368 (peptide)
peptide: YCDGHTREYIDKCL
- Anti-CD28 Fab (SEQ ID NOs: 202, 203) signal [1]: 1.8
- Anti-CD28 Fab signal in the presence of CD28 [2]: 0.08

B27: Phage-366 (peptide)
peptide: YCDGHKAEYMEKCL
- Anti-CD28 Fab (SEQ ID NOs: 202, 203) signal [1]: 1.81
- Anti-CD28 Fab signal in the presence of CD28 [2]: 0.09

B28: Phage-387 (peptide)
peptide: YCAGHLPEYMLKCL
- Anti-CD28 Fab (SEQ ID NOs: 202, 203) signal [1]: 1.76
- Anti-CD28 Fab signal in the presence of CD28 [2]: 0.09

B29: Phage-448 (peptide)
peptide: YCDGHAWEYMTKCL
- Anti-CD28 Fab (SEQ ID NOs: 202, 203) signal [1]: 1.69
- Anti-CD28 Fab signal in the presence of CD28 [2]: 0.35

B30: Phage-341 (peptide)
peptide: YCDGHSWAYMWKCL
- Anti-CD28 Fab (SEQ ID NOs: 202, 203) signal [1]: 1.85
- Anti-CD28 Fab signal in the presence of CD28 [2]: 0.13

B31: Phage-379 (peptide)
peptide: YCAGHVPEYMAKCL
- Anti-CD28 Fab (SEQ ID NOs: 202, 203) signal [1]: 1.78
- Anti-CD28 Fab signal in the presence of CD28 [2]: 0.07

B32: Phage-332 (peptide)
peptide: YCEGHSWEYIGKCL
- Anti-CD28 Fab (SEQ ID NOs: 202, 203) signal [1]: 1.87
- Anti-CD28 Fab signal in the presence of CD28 [2]: 0.07

B33: Phage-337 (peptide)
peptide: YCDGHLAMYMDKCL
- Anti-CD28 Fab (SEQ ID NOs: 202, 203) signal [1]: 1.86
- Anti-CD28 Fab signal in the presence of CD28 [2]: 0.08

B34: Phage-373 (peptide)
peptide: YCDGHTSEYITKCL
- Anti-CD28 Fab (SEQ ID NOs: 202, 203) signal [1]: 1.79
- Anti-CD28 Fab signal in the presence of CD28 [2]: 0.07

B35: Phage-442 (peptide)
peptide: YCAGHSPLYMLKCL
- Anti-CD28 Fab (SEQ ID NOs: 202, 203) signal [1]: 1.7
- Anti-CD28 Fab signal in the presence of CD28 [2]: 0.1

B36: Phage-333 (peptide)
peptide: YCDGHSALYMSKCL
- Anti-CD28 Fab (SEQ ID NOs: 202, 203) signal [1]: 1.87
- Anti-CD28 Fab signal in the presence of CD28 [2]: 0.08

B37: Phage-449 (peptide)
peptide: YCEGHSPWYMNKCL
- Anti-CD28 Fab (SEQ ID NOs: 202, 203) signal [1]: 1.68
- Anti-CD28 Fab signal in the presence of CD28 [2]: 0.06

B38: Phage-327 (peptide)
peptide: YCEGHSLEYMAKCL
- Anti-CD28 Fab (SEQ ID NOs: 202, 203) signal [1]: 1.88
- Anti-CD28 Fab signal in the presence of CD28 [2]: 0.08

B39: Phage-364 (peptide)
peptide: YCQGHSAEYMMKCL
- Anti-CD28 Fab (SEQ ID NOs: 202, 203) signal [1]: 1.81
- Anti-CD28 Fab signal in the presence of CD28 [2]: 0.07

B40: Phage-382 (peptide)
peptide: YCDGLASEYMSKCL
- Anti-CD28 Fab (SEQ ID NOs: 202, 203) signal [1]: 1.77
- Anti-CD28 Fab signal in the presence of CD28 [2]: 0.05

B41: Phage-338 (peptide)
peptide: YCDGHMPEYLAKCL
- Anti-CD28 Fab (SEQ ID NOs: 202, 203) signal [1]: 1.86
- Anti-CD28 Fab signal in the presence of CD28 [2]: 0.07

B42: Phage-69 (peptide)
peptide: YCDGHLPEYMAKCL
- Anti-CD28 Fab signal [3]: 2.37
- Anti-CD28 Fab signal in the presence of CD28 [4]: 0.13

B43: Phage-28 (peptide)
peptide: YCEGHLPEYIEKCL
- Anti-CD28 Fab signal [3]: 2.06
- Anti-CD28 Fab signal in the presence of CD28 [4]: 0.08

B44: Phage-31 (peptide)
peptide: YCEGHAPEYIWKCL
- Anti-CD28 Fab signal [3]: 1.63
- Anti-CD28 Fab signal in the presence of CD28 [4]: 0.07

B45: Phage-30 (peptide)
peptide: YCEGHAPEYIRKCL
- Anti-CD28 Fab signal [3]: 1.63
- Anti-CD28 Fab signal in the presence of CD28 [4]: 0.08

B46: Phage-34 (peptide)
peptide: YCEGHLPEYREKCL
- Anti-CD28 Fab signal [3]: 1.96
- Anti-CD28 Fab signal in the presence of CD28 [4]: 0.07

B47: Phage-33 (peptide)
peptide: YCEGHLPEYLGKCL
- Anti-CD28 Fab signal [3]: 1.23
- Anti-CD28 Fab signal in the presence of CD28 [4]: 0.08

B48: Phage-29 (peptide)
peptide: YCEGHAPEYIAKCL
- Anti-CD28 Fab signal [3]: 2.15
- Anti-CD28 Fab signal in the presence of CD28 [4]: 0.09

B49: Phage-381 (peptide)
peptide: YCEGHLDEYMWKCL
- Anti-CD28 Fab (SEQ ID NOs: 202, 203) signal [1]: 1.77
- Anti-CD28 Fab signal in the presence of CD28 [2]: 0.06

B50: Phage-343 (peptide)
peptide: YCDGHSLQYLGKCL
- Anti-CD28 Fab (SEQ ID NOs: 202, 203) signal [1]: 1.84
- Anti-CD28 Fab signal in the presence of CD28 [2]: 0.09

B51: Phage-380 (peptide)
peptide: YCDGHSAEYITKCL
- Anti-CD28 Fab (SEQ ID NOs: 202, 203) signal [1]: 1.77
- Anti-CD28 Fab signal in the presence of CD28 [2]: 0.06

From patent US20260274955A1 (JANUX THERAPEUTICS, published 2026)
